These results are taken from paper PMC6020066 (Science (New York, N.Y.), 2018).

In the assay the target is HA-GST-LC3B (UniProt Q9GZQ8 1-120). The assay can be described thus: pull-down.

B1: purified FLAG-NUFIP1-HA-ZNHIT3 complex (complex)
chain 1: not shown
chain 2: MASLKCSTVVCVICLEKPKYRCPACRVPYCSVVCFRKHKEQCNPETRPVEKKIRSALPTKTVKPVENKDDDDSIADFLNSDEEEDRVSLQNLKNLGESATLRSLLLNPHLRQLMVNLDQGEDKAKLMRAYMQEPLFVEFADCCLGIVEPSQNEES
Consider B1, for which the binding result is given as “binds”.
